Common to all, as to settings: both partners purified
Test [1] deals with T1, ^19F-labeled Tom70 (5-fluoro-tryptophan, residues 108–608) (human, UniProt O94826 108-608, 5-fluoro-tryptophan at W169 and W523).
T1 construct: human Tom70, residues 108-608; also called ^19F Tom70; 5F-Trp Tom70; source: E. coli BL21(DE3) in M9 media supplemented with 5-fluoro-tryptophan, purified as unlabeled Tom70; not shown: Avi, N-terminal, cleaved; His6, N-terminal, cleaved
T1 sequence: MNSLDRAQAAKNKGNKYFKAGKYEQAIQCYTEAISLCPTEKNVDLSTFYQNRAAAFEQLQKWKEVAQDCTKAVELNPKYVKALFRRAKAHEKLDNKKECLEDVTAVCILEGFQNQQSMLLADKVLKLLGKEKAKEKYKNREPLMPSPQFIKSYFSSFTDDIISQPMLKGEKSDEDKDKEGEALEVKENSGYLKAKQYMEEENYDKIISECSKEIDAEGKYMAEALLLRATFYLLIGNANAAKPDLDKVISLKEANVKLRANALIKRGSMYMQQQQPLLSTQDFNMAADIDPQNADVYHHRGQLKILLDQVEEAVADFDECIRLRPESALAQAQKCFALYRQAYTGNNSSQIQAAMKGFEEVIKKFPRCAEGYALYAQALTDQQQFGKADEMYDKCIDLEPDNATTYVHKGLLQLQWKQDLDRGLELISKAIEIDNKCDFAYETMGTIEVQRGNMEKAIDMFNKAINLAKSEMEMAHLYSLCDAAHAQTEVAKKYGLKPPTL
The test can be described thus: NMR titration; […]) 130 μM, […]) 400 μM, […]; 25°C; […].

Test [2] addresses T2, Tom70:Hsp90_(EEVD) complex (human, UniProt O94826 108-608, C-terminus not amidated (free carboxyl)).
T2 construct: human Tom70, residues 108-608; tyrosine added to aid with quantification; C-terminal residues 724-732 of human Hsp90α; also called Tom70 complexed with Hsp90_(EEVD) peptide; not shown: Avi, N-terminal, cleaved; His6, N-terminal, cleaved
Briefly: ITC; Orf9b_(Helix) (120 μM) titrated into 15 μM Tom70 or Tom70:Hsp90_(EEVD) complex (15 μM Tom70: 400 μM Hsp90_(EEVD)); 20°C; 20 mM sodium phosphate pH 7, 100 mM NaCl, 2 mM TCEP; 1:1 binding model. In general terms: In ITC the heat of successive injections is recorded.

Test [3] has as its target T3, human Tom70 (residues 108–608) (human, UniProt O94826 108-608).
T3 construct: human Tom70 (translocase of outer mitochondria membrane 70), residues 108-608; N-terminal Avi tag, His6 tag, (GGS)5 linker and TEV site removed by TEV protease; also called hTom70; free Tom70; source: E. coli BL21 (DE3), purified (Ni-NTA, TEV cleavage, second Ni column, SEC); not shown: Avi, N-terminal, cleaved; His6, N-terminal, cleaved
T3 sequence: T1 sequence
Described as above.

Test [4] has as its target T4, human Hsp90α (residues 1–732), full-length (human, UniProt P07900 1-732).
T4 construct: human Hsp90α, residues 1-732; also called full-length Hsp90; heat shock protein 90; source: E. coli BL21 Star (DE3) pLysS, purified (Ni-INDIGO, TEV cleavage, second Ni-INDIGO, HiPrep Q); not shown: Avi, N-terminal, cleaved; His6, N-terminal, cleaved
Briefly: ITC; […] (400 μM), […] (400 μM), […] (500 μM) […] (20 μM); 20°C; 20 mM sodium phosphate pH 8, 150 mM NaCl, 2 mM TCEP, 10% glycerol; 1:1 binding model.

B1: Orf9b_(Helix) peptide (peptide)
peptide: IILRLGSPLSLNMARKTLNSLEDKAFQLTPIAVQY
notes: SARS-CoV-2 Orf9b residues 44-77, the helical region seen in the Tom70-Orf9b structure; tyrosine added to aid with quantification
In the case of B1, the binding result in test [1], in test [2] and in test [3] was “binds” each time.

B2: Tom70:Orf9b_(Helix) complex (complex)
chain 1: T1 sequence
chain 2: B1 peptide
notes: human Tom70, residues 108-608; SARS-CoV-2 Orf9b residues 44-77; tyrosine added to aid with quantification; not shown: Avi, N-terminal, cleaved; His6, N-terminal, cleaved
In the case of B2, the “fold by which the inhibitory effect of full-length Orf9b exceeds that of Orf9b_(Helix)” value in test [4] was determined as 2.4 fold.

The values are drawn from publication doi:10.1101/2025.11.18.689095 (bioRxiv, 2025).
